Measurements taken from paper PMC9893541 (BMC Biology, 2023).
Changes are numbered by the printed parent chain. Numbers in names are those of the source.

T1: BMP4/GDF5 heterodimer (human, UniProt P12644 293-408; P43026 382-501)
T1 construct: additional Met residue on the N-terminus of the BMP4 construct; bone morphogenetic protein 4 (BMP4), mature domain; Growth and Differentiation Factor 5 (GDF5), mature domain; Made by people from two natural mature chains; disulfide-linked dimer; also called GDF5/BMP4; copies: 1 + 1
T1 sequence 1: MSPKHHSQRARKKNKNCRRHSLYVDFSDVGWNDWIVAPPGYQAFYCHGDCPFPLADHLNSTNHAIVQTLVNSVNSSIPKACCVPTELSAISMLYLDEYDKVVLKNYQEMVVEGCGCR
T1 sequence 2: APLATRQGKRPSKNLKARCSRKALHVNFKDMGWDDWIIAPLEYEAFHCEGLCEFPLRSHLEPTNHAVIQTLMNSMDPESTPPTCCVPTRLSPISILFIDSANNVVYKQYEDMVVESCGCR

T2: FC-(Alk6)2 (UniProt O00238 14-126)
T2 construct: type 1 receptor Alk6 (BMPR1B) in a recombinant chimeric Fc-receptor; also called chimeric FC-receptor; source: bought: R&D (Cat# 505-PR-100)
T2 sequence (looked up): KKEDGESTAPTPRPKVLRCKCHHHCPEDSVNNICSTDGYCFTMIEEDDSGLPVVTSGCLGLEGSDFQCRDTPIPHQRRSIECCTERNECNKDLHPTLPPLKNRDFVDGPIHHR

B1: FC-(Alk3)2 (Fc fusion, UniProt P36894 24-152, looked up)
chain: QNLDSMLHGTGMKSDSDQKKSENGVTLAPEDTLPFLKCYCSGHCPDDAINNTCITNGHCFAIIEEDDQGETTLASGCMKYEGSDFQCKDSPKAQLRRTIECCRTNLCNQYLQPTLPPVVIGPFFDGSIR
notes: type 1 receptor Alk3 (BMPR1A) in a recombinant chimeric Fc-receptor; also called chimeric FC-receptor; source: bought: R&D (Cat# 315-BR-100/CF)
B2: BMP4 homodimer (ligand, human)
chain: T1 sequence 1
notes: additional Met residue on the N-terminus of the BMP4 construct; bone morphogenetic protein 4 (BMP4), mature domain; Dimer stabilised by an inter-chain disulfide bond; also called homodimeric BMP4
B3: mature BMP4 (single chain) (natural protein, human)
chain: T1 sequence 1
notes: additional Met residue on the N-terminus of the BMP4 construct; bone morphogenetic protein 4 (BMP4), mature domain; The single chain before dimerisation; used for the rows on dimer formation; also called BMP4 monomer; monomeric BMP4; source: E. coli Rosetta (DE3), inclusion bodies, solubilised in urea, clarified (minimum 90 % purity)
B4: mature BMP2 (single chain) (natural protein, human, UniProt P12643 283-396, looked up)
chain: QAKHKQRKRLKSSCKRHPLYVDFSDVGWNDWIVAPPGYHAFYCHGECPFPLADHLNSTNHAIVQTLVNSVNSKIPKACCVPTELSAISMLYLDENEKVVLKNYQDMVVEGCGCR
notes: bone morphogenetic protein 2 (BMP2), mature domain; The single chain before dimerisation; used for the rows on dimer formation; also called BMP2 monomer; BMP2 chain; source: E. coli Rosetta (DE3), inclusion bodies, solubilised in urea, clarified (minimum 90 % purity)
B5: mature BMP2 L333P (single chain) (natural protein, human, UniProt P12643 283-396, looked up)
chain: B4 chain with L51P
notes: bone morphogenetic protein 2 (BMP2), mature domain, with L333P; The single chain before dimerisation; used for the rows on dimer formation; also called L333P BMP2; source: E. coli Rosetta (DE3), inclusion bodies, solubilised in urea
B6: FC-(ActRIIb)2 (Fc fusion, UniProt Q13705-1 19-137, looked up)
chain: SGRGEAETRECIYYNANWELERTNQSGLERCEGEQDKRLHCYASWRNSSGTIELVKKGCWLDDFNCYDRQECVATEENPQVYFCCCEGNFCNERFTHLPEAGGPEVTYEPPPTAPTLLT
notes: type 2 receptor ActRIIb (ACVR2B) in a recombinant chimeric Fc-receptor; also called (ActRIIB)2-Fc; source: bought: R&D (Cat# 339-RB-100/CF)
B7: FC-(BMPR2)2 (Fc fusion, UniProt Q13873 27-150, looked up)
chain: SQNQERLCAFKDPYQQDLGIGESRISHENGTILCSKGSTCYGLWEKSKGDINLVKQGCWSHIGDPQECHYEECVVTTTPPSIQNGTYRFCCCSTDLCNVNFTENFPPPDTTPLSPPHSFNRDET
notes: type 2 receptor BMPR2 in a recombinant chimeric Fc-receptor; source: bought: R&D (Cat# 811-BR-100)
B8: GDF5 homodimer (ligand, human, UniProt P43026 382-501, looked up)
chain: T1 sequence 2
notes: Growth and Differentiation Factor 5 (GDF5), mature domain; Dimer stabilised by an inter-chain disulfide bond; also called homodimeric GDF5; Growth and Differentiation Factor 5
B9: mature GDF5 (single chain) (natural protein, human, UniProt P43026 382-501, looked up)
chain: T1 sequence 2
notes: Growth and Differentiation Factor 5 (GDF5), mature domain; The single chain before dimerisation; used for the rows on dimer formation; also called GDF5 monomer; GDF5 chain; source: E. coli Rosetta (DE3), inclusion bodies, solubilised in urea, clarified (minimum 90 % purity)
B10: BMP2_L333P/GDF5 heterodimer (complex, human)
chain 1: B4 chain with L51P
chain 2: T1 sequence 2
notes: bone morphogenetic protein 2 (BMP2), mature domain, with L333P; Growth and Differentiation Factor 5 (GDF5), mature domain, wild type; Predicted by the authors to have one disrupted type 1 site (GFBW) and one functional site (BFGW); also called mutant heterodimer; copies: 1 + 1

What was measured:
BMP4/GDF5 heterodimer [1] = molecular target: T1, BMP4/GDF5 heterodimer; assay: SPR; BIAcore T-200; chimeric Fc-type 1 receptor coupled to a Series S Protein A chip; ligands 6.25-0.049 nM flowed at 50 uL/min, 300 s association, 1000 s dissociation; 20 mM HEPES pH 7.4, 350 mM NaCl, 0.005 % P-20, 0.5 mg/mL BSA, 3.4 mM EDTA; kinetic 1:1 fit (also a bivalent fit); apparent KD = kd/ka; average of N=2; conditions: both partners purified
FC-(Alk3)2 = molecular target: B1; assay: as above; conditions: both partners purified
FC-(ActRIIb)2 = molecular target: B6; assay: SPR; chimeric Fc-type 2 receptor coupled to a Series S Protein A chip; ligands 100-0.198 nM in SPR buffer, 300 s association, 1000 s dissociation; steady-state analysis; apparent affinities; average of N=2; conditions: both partners purified
FC-(BMPR2)2 = molecular target: B7; assay: as above; conditions: both partners purified
[2] = molecular target: B9; assay: oxidative refolding of mixed chains, heparin affinity chromatography, SDS-PAGE and Western blot (reducing and non-reducing), MALDI-TOF mass spectrometry; solubilised inclusion bodies mixed in a 1:1 molar ratio, refolded 5 days in 0.1 M Tris pH 8.5, 0.5 M L-arginine, 0.3 % CHAPS, 150 mM NaCl, 1 mM reduced and 1 mM oxidized glutathione, 1 mM EDTA; heparin column eluted with 150-650 mM NaCl; disulfide-linked dimers; conditions: both partners purified
[3] = molecular target: the molecule itself; assay: as above
BMP4/GDF5 heterodimer [4] = molecular target: T1, BMP4/GDF5 heterodimer; assay: SPR; chimeric Fc-type 2 receptor coupled to a Series S Protein A chip; ligands 100-0.198 nM in SPR buffer, 300 s association, 1000 s dissociation; steady-state analysis; apparent affinities; average of N=2; conditions: both partners purified
BMP2/GDF5 heterodimer = molecular target: T3, BMP2/GDF5 heterodimer (human, UniProt P12643 283-396; P43026 382-501); assay: as above; conditions: both partners purified
T3 construct: bone morphogenetic protein 2 (BMP2), mature domain; Growth and Differentiation Factor 5 (GDF5), mature domain; Made by people from two natural mature chains; disulfide-linked dimer; also called GDF5/BMP2; WT heterodimer; copies: 1 + 1

GDF5 homodimer = molecular target: B8; assay: as above; conditions: both partners purified
FC-(Alk6)2 = molecular target: T2, FC-(Alk6)2; assay: SPR; BIAcore T-200; chimeric Fc-type 1 receptor coupled to a Series S Protein A chip; ligands 6.25-0.049 nM flowed at 50 uL/min, 300 s association, 1000 s dissociation; 20 mM HEPES pH 7.4, 350 mM NaCl, 0.005 % P-20, 0.5 mg/mL BSA, 3.4 mM EDTA; kinetic 1:1 fit (also a bivalent fit); apparent KD = kd/ka; average of N=2; conditions: both partners purified

Binder: B1
Kd (BMP4/GDF5 heterodimer [1]): 0.029 nM

Binder: B2
Kd (FC-(Alk3)2): 0.072 nM | binding result (FC-(ActRIIb)2): binds | binding result (FC-(BMPR2)2): binds

Binder: B3
binding result [2]: binds | binding result [3]: binds

Binder: B4
binding result [2]: binds | binding result [3]: binds

Binder: B5
binding result [2]: binds | binding result [3]: binds

Binder: B6
binding result (BMP4/GDF5 heterodimer [4]): binds | binding result (BMP2/GDF5 heterodimer): binds | binding result (GDF5 homodimer): binds

Binder: B7
binding result (BMP4/GDF5 heterodimer [4]): binds | binding result (BMP2/GDF5 heterodimer): binds

Binder: B8
Kd (FC-(Alk3)2): 0.328 nM

Binder: B9
binding result [3]: binds

Binder: B10
fold decrease in KD (so in the source) against WT GDF5 homodimer (FC-(Alk6)2): ~5 fold
